According to US20130078245A1 (REGENTS OF THE UNIVERSITY OF COLORADO A BODY CORPORATE, published 2013):

Molecular target: T1, recombinant human C3d (human, UniProt P01024 996-1303, limits assumed)
T1 construct: domain: C3d; The Biacore paragraph says only C3d; also called recombinant C3d
Assay: BIAcore SPR, C3d immobilized on the chip, antibody at 10, 30 and 90 nM in flow, 1:1 Langmuir fit
Text: The binding affinity of the anti-C3d/C3dg antibodies to C3d was further tested by BIAcore analysis.

T1 sequence (P01024 996-1303 limits assumed): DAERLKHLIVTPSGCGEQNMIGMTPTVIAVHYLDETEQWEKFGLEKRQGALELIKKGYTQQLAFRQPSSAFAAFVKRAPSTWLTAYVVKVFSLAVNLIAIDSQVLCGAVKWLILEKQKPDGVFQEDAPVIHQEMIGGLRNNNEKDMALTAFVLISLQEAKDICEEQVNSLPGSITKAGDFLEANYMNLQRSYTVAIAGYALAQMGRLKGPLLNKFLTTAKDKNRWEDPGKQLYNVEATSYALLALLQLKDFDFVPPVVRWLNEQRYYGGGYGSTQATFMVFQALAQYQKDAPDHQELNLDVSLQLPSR

B1: mouse monoclonal anti-C3d antibody 3d29, produced by hybridoma cell line 3d-29/5/2 (ATCC PTA-11000) (antibody, V domains shown)
VH: EVQLQQSGPVLVKPGASVKMSCKASGYTFTDYYMNWVKQSHGKSLEWIGVINPYNGGTSYNQKFKGKATLTVDKSSRTAYMELNSLTSEDSAVYYCSRGGPYWGQGTTLTVSS
VL: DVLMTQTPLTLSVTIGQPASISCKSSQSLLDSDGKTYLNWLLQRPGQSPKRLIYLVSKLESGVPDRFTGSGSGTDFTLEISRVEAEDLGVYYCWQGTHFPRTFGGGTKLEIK
notes: Whole mouse IgG purified on protein G; also called mAb 3d29; clone 3d29
- Kd: 1.06 nM
